Assay: yeast display, Sf9 membrane polyspecificity reagent, FACS + sequencing; frameworks hold sequencing errors
How it was run: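 A synthetic nanobody library was expressed on Saccharomyces cerevisiae BJ5465 by galactose induction for 36–48 hours. The library was stained for 1 hour at 4 °C with 10% biotinylated, detergent-solubilized Sf9 membrane reagent and enriched with streptavidin microbeads before FACS. Low and high (top ~1%) gates were set on anti-HA fluorescence for expression and streptavidin fluorescence for reagent binding, and each polyreactivity label reflects the gate of origin.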

Row | Sequence | polyreactivity (PSR sort gate)
1 | QVQLVESGGGLVQAGGSLRLSCAASGLTFDGNTMGWYRQAPGKERELVAAISFDGGNTYADSVKGRFRISRDNAKNTVYLQMNSLKPEDTAVYYCNASYEYNAGRVETEYDYWGQGTQVTVSS | low polyreactivity
2 | QVQLVESGGGLVQAGGSLRLSCAASGRIFYQNALGWYRQAPGKERELVADITSGGSTYYADSVKGRFTISRDNAKNTVYLQMNSLKPEDTAVYDCNTPSGPGTVGSYRRKWYGYWGQGTQVTVSS | low polyreactivity
3 | QVQLVESGGGLVQAGGSLRLSSAASGSTFTGYTMGWYRQATGKERELVASIRTYYADSVKGRFTISRDNAKNTVYLQMNSLKPEDTAVYYCAADFPSATGGYDYWGQGTQVTVSS | low polyreactivity
4 | QVQLVESGGGLVQAGGSLRLSCAASGLTIRYNAMGWYRQAPGKERELVARISRNGGRTYYADSVKGRFTISRDNAKNTVYLQMKSLKPEDTAVNYCNVVYFVTTSPGYDYWGQGTQVTVSS | high polyreactivity
5 | QVQLVESGGGLVQAGGSLRLSCAASGLIFRGYVMGWYRQAPGKERELVAAISRRGVNTYYADSVKGRFTISRDNAKNTFYLQMNSLKPEDTAVYYCNAYVHTQGGDYWGQGTQVTVSS | high polyreactivity
6 | QVQLVESGGGLVQAGGSLRLSCAASGSNIYTYAMGWYRHAPGKERELVAAISSGGSTTYADSVKGRFTISRDNAKNTVYLEMISLKPEDTAVYYCAADGASRALYDYWGQGTQVTVSS | high polyreactivity
7 | QVQLVESGGGLVQAGGSLRLSCAASGSIFGANAMGWYRKAPGKERELVAAISTRGGRTYYADSVKGRFTISRDNAKNTVYLQMNSLKPEDTAVYYCATSGGRPYKYEYWGQGTQVTVSS | high polyreactivity
8 | QVQIVESGGGLVQAGGSLRLSCAASGFIFDNNAMGWSRQAPWKESELFATITSGGRTNYADSVKGRFTISRDNAKNTVYLRMNCLKPEDTAVYYCAAFYYLCSRRKTRDYWGQGTQVTVSS | low polyreactivity
9 | QVQLVESGGGLVQAGGSLRLSCAASGFIILINVMGWYRQAPGKERELVAVITGGGTTNYADSVKGRFTFSRDNAKNTVYLQMNSLKPEDTAVYYCAVDAGAGDNDYWGQGTQVTVSS | low polyreactivity
10 | QVQLVESGGGLVQAGGSLRLSCAASGNTFTWYTMGWYRQAPGKERELVAVMTSDGSTYYADSVKGRFTISRDNAKNTVSFQMNSLKPEDTAVYYCNRGVFDTFYYYPQVGFGYWGQGTQVTVSS | low polyreactivity
11 | QVQLVESGRGLVQAGGTLRLSCAASGFIFATNTMGWYRQAPGKERELVAASSTYYADSVKGRFTISRDNAKNTVYLQMNSLKPEDTAVYYCNADRDSYIGFVDWAGEYWGQGTQVTVSS | low polyreactivity
12 | QVQLVESGGGLVQAGGSLRLSCAASGYTFYINGMGWSRQAPGKERELVAVITWSSGSTYYADSVKGRFTISRDNAKNTVYLQMKSLKPEDTAVYYCAADVTYEDGAWTLQYDYWGQGTQVTVSA | high polyreactivity
13 | QVQLQESGGGLVQACGSQRLSCAASGSISEGQDMGRYRRAPRKEREFVAGIAPGATTYYADSVKGRFTISRDNAKNTVYLQMNSLKPEDTAVYYCAARSVTETDHDYWGQGTQVTVSS | low polyreactivity
14 | QGQLVASGGGLVQAGGSLRLSSAASGSIFWLSTMGWSRQGPGKEREWVAAITGSGSATYYADSVKGRFTISRDYAKNTVYLQMTTLKPEDTADYYCAAYWSSARRRYDYWGQGSQVTVSS | high polyreactivity
15 | QVQLVESGGGLVQAGGSLRLSCAASGFIYWYAMGWSRQAPGKERELVAAITWSGGSTYADSVKGRFTISRDNAKNTVYLQMNSLKPEDTAVYYCAADKYSQWSSHTRVRYDYWGQGTQVTVSS | low polyreactivity
16 | QVQLVESGGGLVQAGGSLRLSCAASGSTFYPYAMGWYRQAPGKERELVAAISSRDGRTYYADSVKGRFTISRDNAKNTVYLQMNSLKPEDTAVYYCAASSFNNGHRYDYWGQGTQVTVSS | high polyreactivity
17 | QVQLVESGGGLVQAGGSLRLSCAASGSIFVFNAMGWYRQAPGKERELVAAISSSGGSTYYADSVKGRFTISRDNAKNTVYLQMNSLKPEDTAVYYCNKRLYYQRWPAAAREYWGQGTQVTVSS | high polyreactivity
18 | QVQLVESGGGLVQAGGSLRLSCAASGSIFSNNAMGWYRQAPGKEREFVAAIRGRGTRAYYADSVKGRFTISRDNAKNTVYLQMNSLKPEDTAVYYCAASARTYVQSGYWGQGTQVTVSS | high polyreactivity
19 | QVQLVESGGGLVQAGGSLRLTCAASGRIFYKYVMGWYRQAPGKERELVATITSGGSTYYADSVKGRFTISRDNAKNTVYLHMNSLKPEDTAVYYCAARKYYSRAYDYWGQGTQVTVSS | high polyreactivity
20 | QVQLVESGGGLVQAGGSLRLSCAASGITFGRYAMGWYRQAPGKERELVAAITWSGGSTYYADSVKGRFTISRDNSKNTVYLQMNSLKPEDTAVYYCAATWYPGRAGYYYWGQGTQVTVSS | high polyreactivity
21 | QVQLVESGGGLVQAGGSLRLSCAASGFIFHPNTMGWYRPAPGKERELVAGISYSGGITYTDSVKGRFTISRDNAKNTVYLQMNSLQPEDTAVYYFNARTKVAYYRHYYWGQGTQVTVSS | low polyreactivity
22 | QVKLVESGGGLVQAGGSLRLSCADSGLIFGRNARGWYRQAPGKERELVAAISSSGVRTFYADSVKGRFTISRDNAKNTVYLQMNSLKPEDTAVYYCATRGRVYPTKYSLDEDYWGQGTQVTVSS | high polyreactivity

Row | Sequence | polyreactivity (PSR sort gate)
23 | QVQLVESGGGLVQAGGSLRLSCAASGRIFWVYTMGWYRQAPGKERELVAAITSADSTNYADSVKGRFTISRDNAKNTVYLQMNSLKAEDTAVYYCAARLARDQVREWDERYYYWGQGTQVTVSS | low polyreactivity
24 | QVQLVESGGGLVQAGGSLRLSCAASGRTFAYYVMGWYIQAPGTERELVAAISWSAGCTYYADSVKGRFTISRDNAKNTVYLQMNSLIPEDTAVDYCAADYRFRYEYWGQGTQVTVSS | low polyreactivity
25 | QFQLVESGGGLVQAGGSLRISCAASGITLRRNAMGWYRQAPGKEREWVAAISWSGGRTYYADSVKGRFTISRDNAKNTVYLQMNSLKPEDTAVYYCAARGYPLTAFDYWGQGTQVTVSS | high polyreactivity
26 | QVQLVESGGGLVQAGGSLRLSCAASGFSFHRYAMGWYRQAPGKERELVAGITRRSGSTFYADSVKGRFTISRDNAKNTVYLQMNRLKPEDSAVYYCAATVPGLHWIYDYWGQGTQVTVSS | high polyreactivity
27 | QVQLVESGGGLVQAGGSLRLSCAPSGITFVKNVMGWYRQAPGKEREFVAAISTIGARTYYADSVKGRFTISRDNAKNTVYLQMNSLIPEDTAVYYCNAYKSGYGQEYDYWGQGTQVTVSS | high polyreactivity
28 | QVQLVESGGGLVQAGGSLRLSCAASGSIFAAYTMGWYRQAPGKERELVAAISVSTVSTYYADSVKGRFTISRDNAKISVYLQMNSLKPEDTAVYYCNADSTTQDYDYWGQGTQVTVSS | low polyreactivity
29 | QVQLVESGGGLVQAGGSLRLSCAASGRTFVWYDMGWYRQAPGKERELVAAITKRGTSTYYADSVKGRFTISRDNGKNTVYLQMNRLKPEDTAVYYCAVEYIYWFHSRSSYIYDYWGQGTQVTVSS | low polyreactivity
30 | QVQLVESGGGLVQAGGSLRLSCAASGSTFPTNAMGWYRQAPGKERELDAGITEGGSSTYYADSVKGRFTISRDYAKNTVYLQMNSLKPEDTAVYYCAADVLWYGPFWVRQDDYWGQGTQLTVSS | high polyreactivity
31 | QVQLVESGGGLVQAGGSLRLSCAASGFIFYDYAMGWYRQATGKERELVAGITDSGGSTSYADSVKGRFTISRDNAKNTDYLQMNSLKPEDTAVYYCAADNYVRAGINYDYWGQGTQVTVSS | low polyreactivity
32 | QVQLVESGGGLVQAGGSLRLSCAASGSIFGIYAMGWYRQAPGKERELVAAIDSSGTSTYYADSVKGRFTISRDNAKNTVYLQMNSLKPEDTAVYYCAAYHRISKNNYLGQGTQVTVSS | low polyreactivity
33 | QVQLEESGGGLVQAGGSLRLSCAASGFTFYRYAMGWYRQAPGKERELVAAITWSGGSTYYADSVKGRFTISRDNAKNTVYLQMNSLKPEDTGVYYCNAAAYYPTNYGGYLFEYWGQGTQVTVSS | low polyreactivity
34 | QVQLVESGGGLVQAGGSLRLSCAASGSTFGPYAMGWYRQAPGKERELVAAISRRGTSTYYADSVKGRFTISRDNAKNTVYLQMISLKPEDTAVYYCAADRLLYGGGREYWGQGTQVTVSS | high polyreactivity
35 | QVQLVESGGGLVQAGGSLRLSCAASGSTFRAYAMGWYRQAPGKERELVAAISKRGGSTYYADSVKGRFTISRDNAKYTVYLQMNSLKPEDTAVYYCNAATRSPFDYWGQGTQVTVSS | high polyreactivity
36 | HVQLEESGVGLVQAGGSLRVSCAASGSTFGYYRMGGYRQAPGKERELVAAISWRGGSTYYADSVKGRFTISRDNAMNTVYCQMNSLKPEDTAVYYCAAPVGNYGSIDYWGQVTQVTVSS | low polyreactivity
37 | QVQHVESGGGIVQAGGSLRLSCAASGHIFFYYTMGWYRQAPGKERELVAGITIGGSTNYADSVKGRFTISRDNAKNTVYLQMNSLKPEDTAVYYCNVVKYVYIYSYWEYYYWGQGTQVTVSS | low polyreactivity
38 | QVQLVESGGGLVQAGGSLRLSCAASGRTFYDYAMGWYRQAPGKERELVAAITYSGGSTFYADSVKGRFTISRDNAKNTVYLQMNSLKPEDTAVYYCAAEVLLLVGAAEYDYWGQGTQVTVSS | low polyreactivity
39 | QVQLVESGGGLVQAGGSLRLSCAASGSIFTWYTMGWYRQAPGKERELVAAISWSGGRTYYADSVKGRFTISRDNAKHTVYLQMNSLKPEDTAVYYCAASAYGRPPFDYWGQGTQVTVSS | high polyreactivity
40 | QVQLVESGGGLVQAGGSLRLSCAASGFISYYYAMGWYRQAPGKEREFVAAITSSGGSTRYADSVKGRFTISRDNAKNTVYLQMNSLKPEDTAVYYCAAGNPYFWPYDYWGQGTQVTVSS | low polyreactivity
41 | QVQLVESGGGLVQAGGSLRLSCAASGGIFKYNAMGWYRTAPGKERELVAAIRSSGSTNYADSVKGRFTISRDNAKNTVYLQMNSLKPEETAVYYCNVAYGLQPYDYWGQGTQVNVSS | high polyreactivity
42 | QVQLVESGGGLVQAGGSLRLSCAASGRTYVVKAMGWYRQAPGKERELVAAIIRGNTYYADSVKGRFTISRDNAKNTVYLQMNSLKPEDTAVYYCAARYSPYKYYYWGQGTQVTVSS | high polyreactivity
43 | QVQHVESGGGLVQAGGSLRLSCAASGYTFYFYAMGWYRQAPGKERELVAAITGGGTTSYADSVKGRFTISRDNAKNTVYLQMNSLKPEDTAVYYCNVLFADKSDYWGPGTQVTVSS | low polyreactivity
